Literature values as cited in PMC7956452.
pKd: −log10 of the molar value.

Molecular target: RNA polymerase II CTD phosphorylated heptapeptide (Homo sapiens)

- pKd: 3.81
Substance: PQBP-1 (from UniProt O60828)
